Laboratory results reported in article PMC12730105, “The Interaction Between PGD2 and G6PD6 Is Involved in Aromatic Amino Acid Synthesis” (Biology, 2025).

Molecular target: T1, MBP-G6PD6 (pMAL-c5x) (Arabidopsis thaliana, UniProt Q9FJI5 1-515)
T1 construct: glucose-6-phosphate dehydrogenase 6 (G6PD6), Arabidopsis thaliana, At5g40760, full-length ORF in pMAL-c5x; pMAL-c5x normally places MBP at the N-terminus; source: E. coli BL21 (DE3), purified (amylose resin)
T1 sequence (looked up): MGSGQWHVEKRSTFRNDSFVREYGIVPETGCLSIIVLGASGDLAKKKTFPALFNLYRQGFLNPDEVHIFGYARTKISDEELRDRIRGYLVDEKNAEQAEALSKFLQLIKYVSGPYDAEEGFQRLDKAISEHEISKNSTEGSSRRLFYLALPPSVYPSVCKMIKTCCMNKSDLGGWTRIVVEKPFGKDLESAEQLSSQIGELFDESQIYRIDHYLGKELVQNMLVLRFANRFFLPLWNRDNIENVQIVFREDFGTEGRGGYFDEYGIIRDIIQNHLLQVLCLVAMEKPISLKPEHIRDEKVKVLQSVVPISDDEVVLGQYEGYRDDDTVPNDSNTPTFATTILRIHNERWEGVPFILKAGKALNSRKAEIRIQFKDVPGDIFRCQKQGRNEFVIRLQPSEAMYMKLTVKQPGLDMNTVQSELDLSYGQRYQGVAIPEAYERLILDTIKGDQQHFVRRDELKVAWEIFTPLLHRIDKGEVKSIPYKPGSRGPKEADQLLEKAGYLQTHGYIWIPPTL
Experiment: pull-down; purified PGD2-HIS immobilised on Mag-Beads His-Tag resin (4 °C, 1 h), incubated with MBP-G6PD6 at 4 °C for 3 h, three washes, Western blot (the results speak of immobilised MBP-G6PD6)
Conditions: both partners purified

B1: PGD2-HIS (pET28a-PGD2) (enzyme, Arabidopsis thaliana, UniProt Q9FWA3 1-486, looked up)
chain: MAVQPTRIGLAGLAVMGQNLALNIAEKGFPISVYNRTTSKVDETVERAKKEGNLPLYGFHDPESFVKSIQKPRVIIMLVKAGSPVDQTIKTLSAYLEKGDCIVDGGNEWYENTERREKAVAENGFLYLGMGVSGGEEGARNGPSMMPGGSYEAYKNIEDIVLKVAAQVRDSGPCVTYIGKGGSGNFVKMVHNGIEYGDMQLIAEAYDVLKSVGKLSNEELHSVFSDWNKGELESFLVEITADIFGIKDDKGDGHLVDKVLDKTGMKGTGKWTVQQAAELSVPAPTIESSLDARFLSGLKDERVQAAKVFKAGGFGDILTDQKVDKKQLVDDVRKALYASKICSYAQGMNLIRAKSIEKGWGLKLGELARIWKGGCIIRAIFLDRIKQAYDRNAELANLLVDPEFAKEIIERQSAWRRVVCLAINSGISTPGMSASLAYFDSYRRERLPANLVQAQRDYFGAHTYERTDVEGSFHTEWFKIARQSKI
notes: Printed as PGD2-HIS in the methods and HIS-PGD2 in the results; also called HIS-PGD2; source: E. coli BL21 (DE3), purified (His60 Ni Superflow resin)
  binding result: binds
